From article PMC10156788, “Molecular architecture of the Gαi-bound TRPC5 ion channel” (Nature Communications, 2023)

What was measured:
[1] = biological target: T1, EGFP-tagged human TRPC5EM (amino acids 1 to 765) in lipid nanodiscs (human, UniProt Q9UL62 1-765); assay: cell-based or functional assay
T1 sequence (looked up): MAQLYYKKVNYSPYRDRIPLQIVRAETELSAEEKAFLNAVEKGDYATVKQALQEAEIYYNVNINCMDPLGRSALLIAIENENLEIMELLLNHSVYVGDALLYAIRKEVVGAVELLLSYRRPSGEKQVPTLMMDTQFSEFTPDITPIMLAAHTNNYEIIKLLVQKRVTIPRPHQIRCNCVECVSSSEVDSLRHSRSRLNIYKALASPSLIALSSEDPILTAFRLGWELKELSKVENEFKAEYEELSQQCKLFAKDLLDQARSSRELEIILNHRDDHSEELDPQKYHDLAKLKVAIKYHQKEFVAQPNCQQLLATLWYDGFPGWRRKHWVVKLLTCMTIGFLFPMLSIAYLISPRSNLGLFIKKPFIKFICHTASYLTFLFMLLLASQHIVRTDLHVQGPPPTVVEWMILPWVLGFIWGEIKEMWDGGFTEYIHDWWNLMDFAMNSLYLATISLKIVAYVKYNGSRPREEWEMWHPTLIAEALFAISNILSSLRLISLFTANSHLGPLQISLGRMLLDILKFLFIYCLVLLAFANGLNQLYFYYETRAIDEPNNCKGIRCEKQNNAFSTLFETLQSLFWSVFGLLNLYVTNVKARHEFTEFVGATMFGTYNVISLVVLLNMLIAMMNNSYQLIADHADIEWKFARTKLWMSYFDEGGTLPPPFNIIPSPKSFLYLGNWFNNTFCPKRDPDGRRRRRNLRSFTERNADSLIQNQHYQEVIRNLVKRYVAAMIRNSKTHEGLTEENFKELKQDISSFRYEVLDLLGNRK

[2] = biological target: T1, EGFP-tagged human TRPC5EM (amino acids …); assay: BLI; BLItz, AR2G biosensors; EGFP-tagged TRPC5 in lipid nanodiscs (500 nM) immobilised by NHS/EDC; GTP-activated Gαi3^Q204L flowed at 0.31-1.25 μM, 300 s association, 300 s dissociation; 20 mM HEPES-NaOH pH 8.0, 150 mM NaCl; fitted by specific binding with Hill slope; details: both partners purified
[3] = biological target: T2, human TRPC5 (amino acids 1 to 765, TRPC5EM) in lipid nanodiscs, EGFP and Twin-StrepII-tag removed (human, UniProt Q9UL62 1-765); assay: cryo-EM structure; TRPC5EM in MSP2N2/soybean lipid nanodiscs, alone or mixed with GTP-activated N-myristoylated Gαi3^Q204L at Gα:TRPC5 monomer = 6:1; Buffer A (50 mM Tris-HCl pH 8.0, 150 mM NaCl, 1 mM DTT) with 5 μM GTP; 2.5 mM CaCl2 added before vitrification; no PIP2; details: both partners purified
T2 construct: transient receptor potential canonical 5 (TRPC5), human, amino acids 1 to 765; C-terminal loop region (residues 766-973) truncated; Tags removed with HRV-3C protease after the complex with Gαi3 was formed; residues of the HRV-3C site may be left at the C-terminus; Reconstituted in MSP2N2 nanodiscs; also called TRPC5_(Class1); TRPC5_(Class2); source: HEK293S GnTI- suspension cells (BacMam), …
T2 sequence (looked up): T1 sequence (looked up)

B1: N-myristoylated human Gαi3^Q204L, GTP-activated (natural protein)
chain: TLSAEDKAAVERSKMIDRNLREDGEKAAKEVKLLLLGAGESGKSTIVKQMKIIHEDGYSEDECKQYKVVVYSNTIQSIIAIIRAMGRLKIDFGEAARADDARQLFVLAGSAEEGVMTPELAGVIKRLWRDGGVQACFSRSREYQLNDSASYYLNDLDRISQSNYIPTQQDVLRTRVKTTGIVETHFTFKDLYFKMFDVGGLRSERKKWIHCFEGVTAIIFCVALSDYDLVLAEDEEMNRMHESMKLFDSICNNKWFTETSIILFLNKKDLFEEKIKRSPLTICYPEYTGSNTYEEAAAYIQCQFEDLNRRKDTKEIYTHFTCATDTKNVQFVFDAVTDVIIKNNLKE
modifications: myristoylation at the N-terminal glycine
notes: hexa-histidine tag inserted between M119 and T120; Incubated with 1 mM GTP for 1 h at 30 °C before use; The His tag is internal and no cleavage is described; Myristoylation of the N-terminal glycine implies loss of the first methionine; also called myristoylated Gαi3^Q204L
fold increase in open probability (Po) by Gαi3 (14.6 μM against 0.07 μM) at physiological PIP2, excised inside-out patch [1]: ~7 fold | Kd [2]: 530 nM | stoichiometry N [3]: ≤ 4 Gαi3 per TRPC5 tetramer
